These results are taken from the RNAGym collection of RNA variant scans (doi:10.1093/molbev/msab373).

B1: Azoarcus group I ribozyme (parent)
chain: GUGCCUUGCGCCGGGAAACCACGCAAGGGAUGGUGUCAAAUUCGGCGAAACCUAAGCGCCCGCCCGGGCGUAUGGCAACGCCGAGCCAAGCUUCGGCGCCUGCGCCGAUGAAGGUGUAGAGACUAGACGGCACCCACCUAAGGCAAACGCUAUGGUGAAGGCAUAGUCCAGGGAGUGGCGAAAGUCACACAAACCGG

The data set covers variants of B1. Nature of the data set: reverse-splicing fitness (ratio to wild type); higher = more active; in vitro selection; Mg2+ level not given. The method, boiled down:
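An in vitro group I ribozyme library with randomized positions was T7-transcribed and gel-purified. In triplicate, 10 pmol RNA in EPPS pH 7.5 was reacted with 50 pmoles of a 30-nt RNA substrate for 1 h at 37 °C across several added MgCl2 levels (1–48 mM), then stopped with EDTA. Products were reverse transcribed from a substrate-complementary primer, PCR-amplified and sequenced (HiSeq 4000). Fitness is a variant's read proportion after selection over that before, normalised to wild type.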
For the variant GUGCCUUGCGCCGGGAAACCACGCAAGGGAUGGUGUCAAAUUCGGCGAAACCUAAGCGCCCGCCCGGGCGUAUGGCAACGCAGAGCCAAGCUUCGGCGCCUGCGCCGAUGUAGGUGUAGAGACUAGACGGCACCCACCUAAGGCCAACGGUAUGGUGAAGGCAUAGUCCAGGGAGCGGCGAAAGUCACACAAACCGG [C82A A111U A145C C150G U176C], the reverse-splicing fitness is 0.0163. As for GUGCCUUGCGCCGGGAAACCACGCAAGGGAUGGUGUCAAAUUCGGCGAAACCUAAGCGCCCGCCCGGGCGUAUGGCAACGCAGAGCCAAGCUUCGGCGCCUGCGCCGAUGCAGGUGUAGCGACUAGACGGCACCCACCUAAGGCCAACGCUAUGGUGAAGGCAUAGUCAAGGGAGCGGCGAAAGUCACACAAACCGG [C82A A111C A120C A145C C169A U176C], the reverse-splicing fitness is 0.00859. For the variant GUGCCUUGCGCCGGGAAACCACGCAAGGGAUGGUGUCAAAUUCGGCGAAACCUAAGCGCCCGCCCGGGCGUAUGGCAACGCUGAGCCAAGCUUCGGCGCCUGCGCCGAUGAAGGUGUAGAGACUAGACGGCACCCACCUAAGGCAAACGCUAUGGUGAAGGCAUAGUCUAGGGAGAGGCGAAAGUCACACAAACCGG [C82U C169U U176A], the reverse-splicing fitness came out at 0.0123. The result for GUGCCUUGCGCCGGGAAACCACGCAAGGGAUGGUGUCAAAUUCGGCGAAACCUAAGCGCCCGCCCGGGCGUAUGGCAACGCUGAGCCAAGCUUCGGCGCCUGCGCCGAUGAAGGUGUAGAGACUAGACGGCACCCACCUAAGGCUAACGUUAUGGUGAAGGCAUAGUCAAGGGAGAGGCGAAAGUCACACAAACCGG [C82U A145U C150U C169A U176A] reads 0.0115. Turning to GUGCCUUGCGCCGGGAAACCACGCAAGGGAUGGUGUCAAAUUCGGCGAAACCUAAGCGCCCGCCCGGGCGUAUGGCAACGCCGAGCCAAGCUUCGGCGCCUGCGCCGAUGUAGGUGUAGAGACUAGACGGCACCCACCUAAGGCUAACGGUAUGGUGAAGGCAUAGUCUAGGGAGAGGCGAAAGUCACACAAACCGG [A111U A145U C150G C169U U176A], the reverse-splicing fitness came to 0.00897.

Regarding GUGCCUUGCGCCGGGAAACCACGCAAGGGAUGGUGUCAAAUUCGGCGAAACCUAAGCGCCCGCCCGGGCGUAUGGCAACGCCGAGCCAAGCUUCGGCGCCUGCGCCGAUGCAGGUGUAGGGACUAGACGGCACCCACCUAAGGCGAACGUUAUGGUGAAGGCAUAGUCGAGGGAGAGGCGAAAGUCACACAAACCGG [A111C A120G A145G C150U C169G U176A], the reverse-splicing fitness worked out at 0.0243. Under GUGCCUUGCGCCGGGAAACCACGCAAGGGAUGGUGUCAAAUUCGGCGAAACCUAAGCGCCCGCCCGGGCGUAUGGCAACGCCGAGCCAAGCUUCGGCGCCUGCGCCGAUGAAGGUGUAGCGACUAGACGGCACCCACCUAAGGCCAACGUUAUGGUGAAGGCAUAGUCAAGGGAGAGGCGAAAGUCACACAAACCGG [A120C A145C C150U C169A U176A] stands 0.0105. Turning to GUGCCUUGCGCCGGGAAACCACGCAAGGGAUGGUGUCAAAUUCGGCGAAACCUAAGCGCCCGCCCGGGCGUAUGGCAACGCGGAGCCAAGCUUCGGCGCCUGCGCCGAUGAAGGUGUAGAGACUAGACGGCACCCACCUAAGGCGAACGUUAUGGUGAAGGCAUAGUCAAGGGAGCGGCGAAAGUCACACAAACCGG [C82G A145G C150U C169A U176C], the reverse-splicing fitness came to 0.0162. Regarding GUGCCUUGCGCCGGGAAACCACGCAAGGGAUGGUGUCAAAUUCGGCGAAACCUAAGCGCCCGCCCGGGCGUAUGGCAACGCGGAGCCAAGCUUCGGCGCCUGCGCCGAUGCAGGUGUAGCGACUAGACGGCACCCACCUAAGGCGAACGAUAUGGUGAAGGCAUAGUCGAGGGAGUGGCGAAAGUCACACAAACCGG [C82G A111C A120C A145G C150A C169G], the reverse-splicing fitness stood at 0.00768. GUGCCUUGCGCCGGGAAACCACGCAAGGGAUGGUGUCAAAUUCGGCGAAACCUAAGCGCCCGCCCGGGCGUAUGGCAACGCGGAGCCAAGCUUCGGCGCCUGCGCCGAUGUAGGUGUAGUGACUAGACGGCACCCACCUAAGGCUAACGCUAUGGUGAAGGCAUAGUCAAGGGAGUGGCGAAAGUCACACAAACCGG [C82G A111U A120U A145U C169A]: the reverse-splicing fitness was 0.00258. Under GUGCCUUGCGCCGGGAAACCACGCAAGGGAUGGUGUCAAAUUCGGCGAAACCUAAGCGCCCGCCCGGGCGUAUGGCAACGCUGAGCCAAGCUUCGGCGCCUGCGCCGAUGUAGGUGUAGUGACUAGACGGCACCCACCUAAGGCGAACGGUAUGGUGAAGGCAUAGUCAAGGGAGCGGCGAAAGUCACACAAACCGG [C82U A111U A120U A145G C150G C169A U176C] stands 0.00711; under GUGCCUUGCGCCGGGAAACCACGCAAGGGAUGGUGUCAAAUUCGGCGAAACCUAAGCGCCCGCCCGGGCGUAUGGCAACGCUGAGCCAAGCUUCGGCGCCUGCGCCGAUGCAGGUGUAGGGACUAGACGGCACCCACCUAAGGCGAACGCUAUGGUGAAGGCAUAGUCUAGGGAGCGGCGAAAGUCACACAAACCGG [C82U A111C A120G A145G C169U U176C], 0.0125; under GUGCCUUGCGCCGGGAAACCACGCAAGGGAUGGUGUCAAAUUCGGCGAAACCUAAGCGCCCGCCCGGGCGUAUGGCAACGCAGAGCCAAGCUUCGGCGCCUGCGCCGAUGAAGGUGUAGGGACUAGACGGCACCCACCUAAGGCCAACGGUAUGGUGAAGGCAUAGUCUAGGGAGCGGCGAAAGUCACACAAACCGG [C82A A120G A145C C150G C169U U176C], 0.0123. Under GUGCCUUGCGCCGGGAAACCACGCAAGGGAUGGUGUCAAAUUCGGCGAAACCUAAGCGCCCGCCCGGGCGUAUGGCAACGCUGAGCCAAGCUUCGGCGCCUGCGCCGAUGAAGGUGUAGCGACUAGACGGCACCCACCUAAGGCAAACGAUAUGGUGAAGGCAUAGUCGAGGGAGGGGCGAAAGUCACACAAACCGG [C82U A120C C150A C169G U176G] stands 0.00373; under GUGCCUUGCGCCGGGAAACCACGCAAGGGAUGGUGUCAAAUUCGGCGAAACCUAAGCGCCCGCCCGGGCGUAUGGCAACGCUGAGCCAAGCUUCGGCGCCUGCGCCGAUGGAGGUGUAGUGACUAGACGGCACCCACCUAAGGCCAACGCUAUGGUGAAGGCAUAGUCAAGGGAGGGGCGAAAGUCACACAAACCGG [C82U A111G A120U A145C C169A U176G], 0.00179.
